Patent publication US20100040631A1 (NEW YORK BLOOD CENTER, published 2010)

Molecular target: T1, N46 (HIV-1)
T1 construct: Synthetic peptide from the gp41 N-terminal heptad repeat; Used at 8 uM in CD and 0.5 uM in the ELISA; also called NHR-peptide N46
Assay: competition ELISA: inhibition of six-helix bundle formation between N46 and C34-biotin (competitor), detected with mAb NC-1

B1: T-1249 (peptide)
peptide: WQEWEQKITALLEQAQIQQEKNEYELQKLDKWASLWEWF
notes: 39-mer hybrid polypeptide
  EC50: 800 nM
